Data on 2 molecules can be found in patent US20210017279A1 (NANJING LEGEND BIOTECH, published 2021).

“And” between values parts separate entries of the source, which are not always exact repeats. Equal values may be shown once. Read-outs that look alike come from different tables or passages of the source.

Test [1] concerns the target LAG-3 on Thaw-and-Use LAG-3 Effector cells. The test is described as follows: cell-based or functional assay.
The target of test [2] is T1, Cynomolgus LAG-3-Fc (cynomolgus).
T1 construct: Bought recombinant protein; also called cynomolgus LAG-3 protein (Acrobiosystem, 2187-71HF1-DZ)
The test is described as follows: SPR (Biacore T200); cynomolgus LAG-3 immobilized, antibody injected. For orientation: SPR reads the build-up and loss of mass on a sensor chip optically.
Excerpt: BIACORE™ T200 instrument was utilized to determine affinity constant (KD) of each anti-LAG-3 antibody (sdAb-Fc fusion protein or mAb format) by SPR. Briefly, for measuring the affinity against human LAG-3, anti-LAG-3 antibody was immobilized on the sensor chip through capture antibody (Jackson ImmunoResearch Cat.No.115-005-071) at an appropriate density. […] The data of dissociation rate constant (koff) and association rate constant (k₀n) were obtained using BIACORE™ T200 evaluation software and the affinity constant (KD) were calculated from the ratio of koff to kₒₙ.

In test [3] the target is T1, Cynomolgus LAG-3-Fc. The test is described as follows: SPR (Biacore T200); antibody captured on chip, LAG-3 injected.
Description: BIACORE™ T200 instrument was utilized to determine the affinity constant (KD) of each anti-LAG-3 antibody (sdAb-Fc fusion protein or mAb format) by SPR. Briefly, anti-LAG-3 antibody was immobilized on the sensor chip through capture antibody (Jackson ImmunoResearch Cat. No.115-005-071) at an appropriate density. […] The data of dissociation rate constant (koff) and association rate constant (kₘ) were obtained using BIACORE™ T200 evaluation software and the affinity constant (KD) were calculated from the ratio of koff to kₘ.
Test [4] deals with T2, cynomolgus LAG-3 expressed on CHO-K1 cells (cynomolgus).
T2 construct: whole, on cells
The test is described as follows: flow cytometry on CHO-K1 cells expressing cynomolgus LAG-3. Here is the method:
To determine cell binding EC₅₀, CHO-K1 cells expressing human or cynomolgus LAG-3 were harvested and incubated with anti-LAG-3 sdAb-Fc fusion proteins at gradient concentrations, followed by fluorophore-labeled secondary antibodies against human Fc. […] The samples were then analyzed with flow cytometry. The binding and blocking curves were shown in FIG. 4 and FIG. 5, respectively.
For orientation: Flow cytometry measures light scatter and fluorescence of single cells or particles in a stream.

In test [5] the target is LAG-3 on Thaw-and-Use LAG-3 Effector cells. The test is described as follows: cell-based or functional assay. The source holds these as a separate data set.
Another test has as its target T3, LAG-3-Fc (human, UniProt P18627 29-450, biotinylated (in the blocking assays)).
T3 construct: Recombinant LAG-3-Fc (Acrobiosystems / R&D Systems); also called biotinylated LAG-3-Fc protein; not shown: Fc part
T3 sequence: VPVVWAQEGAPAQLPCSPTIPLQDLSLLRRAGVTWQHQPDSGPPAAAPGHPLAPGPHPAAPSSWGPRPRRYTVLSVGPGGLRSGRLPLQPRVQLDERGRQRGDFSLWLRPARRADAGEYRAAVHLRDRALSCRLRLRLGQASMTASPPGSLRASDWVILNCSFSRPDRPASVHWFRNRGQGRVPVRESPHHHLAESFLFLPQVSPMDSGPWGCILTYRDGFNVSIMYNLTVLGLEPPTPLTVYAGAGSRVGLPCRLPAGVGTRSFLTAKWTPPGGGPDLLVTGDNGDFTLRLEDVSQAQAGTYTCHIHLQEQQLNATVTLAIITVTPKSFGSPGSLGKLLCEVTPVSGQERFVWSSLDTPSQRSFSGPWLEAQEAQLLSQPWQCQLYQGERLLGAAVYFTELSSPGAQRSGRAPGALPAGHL
The test is described as follows: flow cytometry competition; blocks LAG-3-Fc binding to MHC II on A375 cells; Experiment 1.

In test [6] the target is PD-1 in the PD-1 cell based reporter assay. The test is described as follows: cell-based or functional assay.
In test [7] the target is T4, PD-1 expressed on CHO cells (UniProt Q15116 25-288, limits assumed).
T4 construct: whole, on cells; also called CHO-PD-1 cells
The test is described as follows: flow cytometry competition; blocks PD-L1 binding to CHO-PD-1 cells; Experiment 1.

Test [8] has as its target T5, human LAG-3 expressed on CHO-K1 cells (human, UniProt P18627 29-525).
T5 construct: also called CHO-huLAG-3 cells; LAG-3 expressed on CHO cells
T5 sequence: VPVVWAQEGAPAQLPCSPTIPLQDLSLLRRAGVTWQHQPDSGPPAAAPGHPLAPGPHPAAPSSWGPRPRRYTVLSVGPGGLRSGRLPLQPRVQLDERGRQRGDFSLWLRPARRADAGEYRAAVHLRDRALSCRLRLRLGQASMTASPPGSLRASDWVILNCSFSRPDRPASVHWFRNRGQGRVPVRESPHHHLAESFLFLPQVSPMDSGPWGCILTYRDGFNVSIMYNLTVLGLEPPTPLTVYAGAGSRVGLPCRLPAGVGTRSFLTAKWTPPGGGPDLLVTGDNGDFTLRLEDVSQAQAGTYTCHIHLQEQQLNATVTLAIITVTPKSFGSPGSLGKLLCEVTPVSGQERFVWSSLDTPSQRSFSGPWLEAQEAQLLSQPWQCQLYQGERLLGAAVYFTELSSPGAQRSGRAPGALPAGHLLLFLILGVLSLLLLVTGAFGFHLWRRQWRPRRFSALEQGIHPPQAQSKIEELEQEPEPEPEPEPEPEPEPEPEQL
The test is described as follows: flow cytometry on CHO cells expressing LAG-3; Experiment 1.

For another test, the target named is Human PD-1 (human, UniProt Q15116 25-167, limits assumed). The test is described as follows: SPR (Biacore T200), as in Example 3; Experiment 1.
The target of a further test is T6, Human LAG-3-His (human, UniProt P18627 29-450).
T6 construct: Bought recombinant protein; also called Human LAG-3 protein (Acrobiosystem, 772-6BGF2-D5); not shown: His tag
T6 sequence: T3 sequence
The test is described as follows: SPR (Biacore T200), as in Example 3; Experiment 1.

Test [9] addresses T4, PD-1 expressed on CHO cells. The test is described as follows: flow cytometry on CHO cells expressing PD-1; Experiment 1.

T4 sequence (Q15116 25-288 limits assumed): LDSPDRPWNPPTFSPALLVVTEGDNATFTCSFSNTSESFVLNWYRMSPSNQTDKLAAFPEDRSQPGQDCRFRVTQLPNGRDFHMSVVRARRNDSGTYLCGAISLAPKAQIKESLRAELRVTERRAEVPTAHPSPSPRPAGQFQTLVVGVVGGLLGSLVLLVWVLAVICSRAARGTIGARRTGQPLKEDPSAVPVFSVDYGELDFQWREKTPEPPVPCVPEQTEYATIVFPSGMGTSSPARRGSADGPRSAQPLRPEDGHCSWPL
Sequence of Human PD-1 (Q15116 25-167 limits assumed): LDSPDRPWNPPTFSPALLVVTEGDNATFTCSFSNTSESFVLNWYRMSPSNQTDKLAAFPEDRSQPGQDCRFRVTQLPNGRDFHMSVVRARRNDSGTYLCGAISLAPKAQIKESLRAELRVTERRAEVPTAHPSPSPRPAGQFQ

B1: BMS-986016 (antibody, human IgG4 S228P, kappa, V domains shown)
VH: QVQLQQWGAGLLKPSETLSLTCAVYGGSFSDYYWNWIRQPPGKGLEWIGEINHRGSTNSNPSLKSRVTLSLDTSKNQFSLKLRSVTAADTAVYYCAFGYSDYEYNWFDPWGQGTLVTVSS
VL: EIVLTQSPATLSLSPGERATLSCRASQSISSYLAWYQQKPGQAPRLLIYDASNRATGIPARFSGSGSGTDFTLTISSLEPEDFAVYYCQQRSNWPLTFGQGTNLEIKR
notes: also called benchmark antibody; positive control anti-LAG-3 monoclonal antibody (Bristol-Myers Squibb)
The term Kd denotes the free concentration of one partner at which half of the binding sites on the other are occupied at equilibrium, for simple one-to-one binding. Low readings indicate a tighter complex, high ones a looser complex. One may read the EC50 as the midpoint of the concentration-response curve. A high value points to a need for much substance. Consider B1, for which the “LAG-3 blockade reporter assay EC50” value in test [1] was 3.29 nM and 3.82 nM; in test [5], 3.82 nM. For the same molecule, the Kd is 1000 nM with Cynomolgus LAG-3-Fc [2] and 1.7 nM with Cynomolgus LAG-3-Fc [3]. The same molecule registered an EC50 in test [4] of 17.6 nM. The “LAG-3 blockade reporter assay Signal span (% activation)” value in [5] was 76.8 % activation.

B2: BLP-1 (bispecific antibody, human IgG4 S228P, kappa)
heavy: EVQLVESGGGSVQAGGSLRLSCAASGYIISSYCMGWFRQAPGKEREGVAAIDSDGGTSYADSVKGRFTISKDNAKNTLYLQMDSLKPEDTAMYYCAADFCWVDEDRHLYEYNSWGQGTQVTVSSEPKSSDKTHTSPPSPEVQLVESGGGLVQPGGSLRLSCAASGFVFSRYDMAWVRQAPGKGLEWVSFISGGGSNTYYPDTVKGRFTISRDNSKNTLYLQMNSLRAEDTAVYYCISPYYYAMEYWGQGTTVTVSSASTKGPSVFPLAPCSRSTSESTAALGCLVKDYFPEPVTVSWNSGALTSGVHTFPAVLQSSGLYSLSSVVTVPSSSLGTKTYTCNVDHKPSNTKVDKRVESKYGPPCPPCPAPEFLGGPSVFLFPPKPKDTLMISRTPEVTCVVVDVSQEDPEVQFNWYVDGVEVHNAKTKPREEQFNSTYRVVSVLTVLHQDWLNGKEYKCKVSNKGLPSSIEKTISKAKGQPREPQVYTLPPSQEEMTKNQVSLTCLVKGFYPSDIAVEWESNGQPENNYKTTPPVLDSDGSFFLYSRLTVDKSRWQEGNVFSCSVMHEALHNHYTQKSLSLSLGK
light: DIQMTQSPSSVSASVGDRVTITCKASQDVDTAVAWYQQKPGKAPKLLIYWASTRHTGVPSRFSGSGSGTDFTLTISSLQPEDFATYYCQQYSTFPWTFGGGTKVEIKRTVAAPSVFIFPPSDEQLKSGTASVVCLLNNFYPREAKVQWKVDNALQSGNSQESVTEQDSKDSTYSLSSTLTLSKADYEKHKVYACEVTHQGLSSPVTKSFNRGEC
notes: also called PD-1 x LAG-3 proof-of-concept BABP
As to B2, the EC50 in the test with LAG-3-Fc stood at 1.8 nM; in test [7], 6.66 nM; in test [8], 0.883 nM; in [9], 7.91 nM. The “LAG-3 blockade reporter assay EC50” value in test [1] was found to be 4.6 nM. Also, the “PD-1 cell based reporter assay EC50” value in test [6] came out at 7.62 nM. In addition, the Kd with Human PD-1 was 1.8 nM; in the test with Human LAG-3-His, 0.44 nM.
